Here are results for one molecule from paper PMC10821591, “Toxoplasma gondii mitochondrial association factor 1b interactome reveals novel binding partners including Ral GTPase accelerating protein α1” (The Journal of Biological Chemistry, 2023).

In the experiment the target is T1, T. gondii MAF1b (residues 173-443), co-expressed with RalGAPα1(GAP) in insect cells (Toxoplasma gondii, UniProt A0A140H546 173-443).
T1 construct: MAF1b of Toxoplasma gondii, structured C-terminal domain, residues 173-443; The results speak of nickel purification of MAF1b, the methods of streptactin purification and TEV cleavage of RalGAP (±MAF1b)
T1 sequence: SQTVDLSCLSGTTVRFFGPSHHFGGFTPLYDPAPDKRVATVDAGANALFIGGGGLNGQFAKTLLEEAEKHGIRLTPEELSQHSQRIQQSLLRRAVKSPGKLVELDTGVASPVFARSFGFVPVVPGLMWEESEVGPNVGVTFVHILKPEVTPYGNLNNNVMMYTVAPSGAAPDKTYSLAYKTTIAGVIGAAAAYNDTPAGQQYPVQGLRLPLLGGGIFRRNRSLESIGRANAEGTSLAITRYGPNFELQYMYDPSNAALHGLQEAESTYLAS
The experiment can be described thus: SEC; RalGAPα1(GAP) co-expressed with MAF1b_WT in T. ni cells, co-purified by affinity chromatography, TEV cleavage, then Superdex 75 16/600 in 20 mM HEPES pH 7.5, 150 mM NaCl, 1 mM DTT; fractions on SDS-PAGE. The settings on record: both partners purified. In general terms: SEC sorts molecules by how far they enter the pores of the column.

B1: GAP domain of human Ral GTPase Accelerating Protein α1 (residues 1807-1988) (domain or fragment)
chain: not shown
notes: Human RalGAPα1, putative GAP domain, amino acids T1807-P1988 of NP_055805.1; also called RalGAPα1(GAP); RalGAP; not shown: twin-strep-II, N-terminal, cleaved
For B1, the binding result is given as “binds”.
